PMC4319893, “Targeting Protein-Protein Interactions with Trimeric Ligands: High Affinity Inhibitors of the MAGUK Protein Family” (PLoS ONE, 2015)

Target: PSD-95 PDZ3 (human)
Test: fluorescence polarisation; truncation study of CRIPT C-terminal peptides on PSD-95 PDZ3 and PSD-95 FL (S1 Table); probe not told

IETAV was tested, and the affinity was > 50 µM.
